# Laboratory results published in publication PMC12120873, “Evening complex component ELF3 interacts with LUX proteins to repress soybean root nodulation”.
# T1: LUX1-MBP (Glycine max, UniProt K7LTA3 1-306)
# T1 sequence: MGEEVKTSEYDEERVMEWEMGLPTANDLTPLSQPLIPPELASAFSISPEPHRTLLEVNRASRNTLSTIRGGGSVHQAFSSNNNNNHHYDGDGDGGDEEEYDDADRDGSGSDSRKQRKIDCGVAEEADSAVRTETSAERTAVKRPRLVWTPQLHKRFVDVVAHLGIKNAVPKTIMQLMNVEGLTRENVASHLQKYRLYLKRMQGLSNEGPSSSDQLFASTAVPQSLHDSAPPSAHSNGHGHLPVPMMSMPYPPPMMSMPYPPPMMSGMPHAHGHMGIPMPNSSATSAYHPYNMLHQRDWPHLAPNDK
# T2: INN1-MBP (ELF3a) (Glycine max, UniProt K7KI62 1-714)
# T2 sequence: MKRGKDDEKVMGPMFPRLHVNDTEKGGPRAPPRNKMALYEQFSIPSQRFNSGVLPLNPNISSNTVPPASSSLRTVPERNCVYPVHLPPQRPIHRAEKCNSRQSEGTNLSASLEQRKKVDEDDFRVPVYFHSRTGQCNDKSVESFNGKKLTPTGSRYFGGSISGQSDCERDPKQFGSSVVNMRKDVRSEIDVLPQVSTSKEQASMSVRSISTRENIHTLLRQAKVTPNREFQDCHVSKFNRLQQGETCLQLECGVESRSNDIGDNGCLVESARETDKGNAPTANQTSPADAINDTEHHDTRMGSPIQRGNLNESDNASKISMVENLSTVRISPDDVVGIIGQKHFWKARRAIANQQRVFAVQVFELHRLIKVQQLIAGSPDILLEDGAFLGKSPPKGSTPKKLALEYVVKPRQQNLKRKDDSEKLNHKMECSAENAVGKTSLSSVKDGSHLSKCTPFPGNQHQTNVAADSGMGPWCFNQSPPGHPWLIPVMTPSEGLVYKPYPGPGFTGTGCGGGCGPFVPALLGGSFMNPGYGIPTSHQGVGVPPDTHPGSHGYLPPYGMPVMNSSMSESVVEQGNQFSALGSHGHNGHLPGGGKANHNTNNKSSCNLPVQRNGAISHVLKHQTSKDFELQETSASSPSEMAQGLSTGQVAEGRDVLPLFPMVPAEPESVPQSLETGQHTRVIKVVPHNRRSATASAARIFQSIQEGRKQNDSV
# Key:
# LUX1-MBP = target: T1, LUX1-MBP; test: EMSA; LightShift Chemiluminescent EMSA Kit (Pierce) binding buffer, composition, salt and pH not stated; room temperature 20 min; 6% native PAGE; details: protein: recombinant; tags: MBP; label: biotin; blunt
# INN1-MBP (ELF3a) = target: T2, INN1-MBP (ELF3a); test: EMSA; INN1 alone; probe taken to be the ENOD40 probe of Table S1; LightShift Chemiluminescent EMSA Kit (Pierce) binding buffer, composition, salt and pH not stated; room temperature 20 min; 6% native PAGE; details: protein: recombinant; tags: MBP; label: biotin; blunt
binder,measurement,setting,value
probe-ENOD40 (P1 region) (dsDNA) DNA 1: TTGACATTCATATCCTTTGTATTTCAATTAGATTAGATATGTTCTACGGA DNA 2: TCCGTAGAACATATCTAATCTAATTGAAATACAAAGGATATGAATGTCAA,binding result,LUX1-MBP,binds
same,binding result,INN1-MBP (ELF3a),no binding
